Data from patent US20200207858A1 (ADICET BIO, published 2020).

How the values were obtained:
[1] = target: T1, Single-chain HLA-A2 (scHLA-A2)/TyrD 369-377 peptide complex; test: SPR (ProteOn), IgG captured by immobilized anti-mouse antibody, scHLA-A2/TyrD 369-377 as analyte (250-16 nM), Langmuir kinetic fit, column KD
T1 construct: Used as the soluble analyte in SPR; not shown: flexible linker

[2] = target: T1, Single-chain HLA-A2 (scHLA-A2)/TyrD …; test: SPR (ProteOn), IgG captured by immobilized anti-mouse antibody, scHLA-A2/TyrD complex as analyte at 16-250 nM, apparent affinity
Procedure: (§1) Briefly, six channels of ProteOn GLM sensor chip (BioRad laboratories) were activated with 50 μl of a mixture of 0.04 M N-ethyl-N′-(3-dimethylaminopropyl) carbodiimide (EDC) and 0.01 M sulfo-N-hydroxysuccinimide (Sulfo-NHS) at a flow rate of 30 μl/min. The anti-mouse or anti-human polyclonal antibodies (Jackson ImmunoResearch) were diluted in 10 mM sodium acetate buffer pH 4.5 to a final concentration of 25 μg/ml and 150 μl were injected followed by an injection of 150 μl of 1 M ethanolamine-HCl pH 8.5. The IgG TCRL antibodies were injected in the vertical orientation with a flow rate of 30 μl/min. […] Running buffer (PBST) was injected simultaneously in the sixth channel for double referencing to correct for loss of the captured antibodies from the chip sensor surface during the experiment. All binding sensorgrams were collected, processed and analyzed using the integrated ProteOn Manager (Bio-Rad Laboratories, Hercules, USA) software. Binding curves were fitted using the Langmuir model describing 1:1 binding stoichiometry, or with the Langmuir and mass transfer limitation model.

[3] = target: T1, Single-chain HLA-A2 (scHLA-A2)/TyrD …; test: SPR (ProteOn), IgG captured by immobilized anti-human antibody, scHLA-A2/TyrD 369-377 as analyte (250-16 nM), Langmuir kinetic fit, column KD
Procedure: as §1

[4] = target: T1, Single-chain HLA-A2 (scHLA-A2)/TyrD …; test: SPR (ProteOn), IgG captured by immobilized anti-human antibody, scHLA-A2/TyrD complex as analyte at 16-250 nM, apparent affinity
Procedure: as §1

Row | Kd [1] | Kd [2] | Kd [3] | Kd [4] | Binder
1 | 3.98 nM | 4.6 nM |  |  | D11 TCRL antibody (murine parental monoclonal antibody) (antibody, mouse IgG1, kappa, V domains shown, Mouse IgG1 isotype, recombinant from Expi293 cells; The antibody was biotinylated for flow cytometry; also called mouse parental D11) VH: not shown VL: DIQMTQSPSSLSASLGGKVTITCKASQDIHNYIAWYQHKPVKGPRLLIHYTSTLQPGTPSRFSGSGSGRDYSFSISNLEPEDIATYYCLQYDNLWTFGGGTKLEIKR
2 |  |  | 4.61 nM | 3.9 nM | hD11-5 TCRL antibody (humanized D11) (antibody, human IgG1, kappa, V domains shown, The antibody was biotinylated for flow cytometry; also called dH11-5) VH: QITLKESGPTLVKPTQTLTLTCTFSGFSLSTSGMGVSWIRQPPGKALEWLAHIYWDDDKRYNPSLKSRLTITKDTSKNQVVLTMTNMDPVDTATYYCARKDYGSSFYAMHYWGQGTLVTVSS VL: DIQMTQSPSSLSASVGDRVTITCKASQDIHNYIAWYQQKPGKAPKLLIHYTSTLQPGVPSRFSGSGSGTDFTFTISSLQPEDIATYYCLQYDNLWTFGQGTKVEIKR
